Laboratory results taken from PMC9063426, “MAP kinases differentially bind and phosphorylate NOS3 via two unique NOS3 sites” (FEBS Open Bio, 2022).
“Also recorded” adds a separate entry of the source.

Columns and labels:
NOS3 (bovine) = assay: BLI binding of JNK1α1 to full-length NOS3
Protocol: Biolayer interferometry (BLI) experiments were performed on a FortéBio (Menlo Park, CA) Octet QK biosensor using streptavidin (SA) sensors. Assays were performed in opaque 96‐well microplates at 25 °C. All volumes were 200 μL. Active GST‐JNK1α1 (SignalChem) was biotinylated by amine crosslinking to NHS‐LC‐LC‐biotin (succinimidyl‐6‐[biotinamido]‐6‐hexanamidohexanoate) (Thermo Fisher, Waltham, MA, USA). Reactions were performed at a 5 : 1 molar ratio of biotin to protein for 30 min at room temperature followed by separation of protein from free biotin by passage over a desalting column. Biotinylated JNK1α1 was loaded onto sensors for 300 s, which was sufficient to saturate them. Baseline was established by dipping sensors into binding buffer (50 mM Tris, pH 7.4, 10 mM NaCl, 10% glycerol, 0.01% Tween‐20) prior to moving sensors to wells containing varying concentrations of serially diluted NOS3 in the same buffer. Association was measured for 300 s, after which sensors were moved to wells containing buffer only and dissociation was monitored for another 300 s. […] Total binding was used for analysis as nonspecific binding measured by exposing sensors without ligand to analyte was negligible at all NOS3 concentrations used; that is, total binding was effectively specific binding due to very low nonspecific binding. […]

NOS1 = assay: BLI binding of MAP kinases to NOS1; set-up: species or system bovine; details: purified active JNK1α1
NOS3 [1] = assay: In vitro kinase assay with NOS3, phospho-specific immunoblotting; assay type: biochemical, human; details: active kinases with NOS3, 5 and 60 min, immunoblot with anti-pS114
Protocol: (§1) Active (HIS‐NOS3) was incubated alone or with individual kinases (ERK2, p38α, JNK1α1, and PKA) in 100 µL reaction buffer (20 mM HEPES, 0.5 mM DTT, 5 mM MgCl2, 0.5 mM ATP, and 10% glycerol at a pH of 7.4). The reactions were performed at 22‐25 °C for up to 1 h, and for the examination of nitric oxide activity, samples were incubated on ice for the immediate detection of NO via the oxyhemoglobin to methemoglobin assay (see below). For immunoblotting analysis to examine phosphorylation, kinase samples were quenched with 2× sample buffer spiked with 25 mM DTT and heated to 95 °C for 5 min. Boiled samples (at equal volumes) were electrophoresed and transferred to PDVF for immunoblot staining.
All samples were loaded at equal volumes on 3–8% gradient tris‐acetate gels. All gels were transferred to PVDF membranes and transferred for either 2 h at 40V or for 20V overnight. Membranes were blocked with one block (Li‐Cor Biosciences) for 30 m and incubated with respective antibodies (at manufacturers recommend concentrations for immunoblotting, 1 : 500 for the anti‐pS600‐NOS3) overnight at 4 °C. Blots were brought to RT for 30 m and washed 3× with 1X TBST for 10 m, probed with a fluorometric secondary antibody (Li‐Cor IRDye®) for 1 h, and washed before visualizing with a Li‐Cor Odyssey.

NOS3 [2] = assay: Oxyhemoglobin assay of NO production by kinase-treated NOS3; assay type: biochemical, human; details: oxyHb assay, 2.5 µM NOS3 with ERK2 14 nM (N = 10), p38α 14 nM (N = 4), JNK1α1-GST 63 nM (N = 3) or PKA 14 nM (N = 4), 30 min; versus untreated NOS3
Protocol: as §1
The oxyhemoglobin assay (oxyHb assay) is a spectroscopic method that measures the oxidative reaction of oxyhemoglobin at 421 nm (oxyHb) and methemoglobin (metHb) at 401 nm. Kinase assay reactions quenched on ice were used to measure NO synthesis and consumption. All oxyHb reactions were performed at 25 °C in a BioTek 96‐well UV‐visible spectrophotometer. […] Absorbance at 401 nm and 421 nm were read for 1 m at 15‐s intervals. […] Measurements were recorded for 10 min at 15‐s intervals.
To calculate NOS3 activity, the change in absorbance/unit time was divided by the extinction coefficient (ε401‐421 = 77 200 M ^−1cm^−1 (ε401 = 38 600 M ^−1cm^−1)). […]

NOS3 [3] = assay: TCSPC fluorescence lifetime, conformation of NOS3; details: FMN excited at 473 nm, detected at 525 nm; NOS3 holoenzyme
Protocol: Time‐resolved intensity decays were recorded using time‐correlated single‐photon counting fluorescence lifetime spectrometry (TCSPC FLT) to determine whether phosphorylation by JNK1α1 changes the conformation of NOS3.

B1: mitogen‐activated protein kinase 8 (protein)
chain: MSRSKRDNNFYSVEIGDSTFTVLKRYQNLKPIGSGAQGIVCAAYDAILERNVAIKKLSRPFQNQTHAKRAYRELVLMKCVNHKNIIGLLNVFTPQKSLEEFQDVYIVMELMDANLCQVIQMELDHERMSYLLYQMLCGIKHLHSAGIIHRDLKPSNIVVKSDCTLKILDFGLARTAGTSFMMTPYVVTRYYRAPEVILGMGYKENVDLWSVGCIMGEMVCHKILFPGRDYIDQWNKVIEQLGTPCPEFMKKLQPTVRTYVENRPKYAGYSFEKLFPDVLFPADSEHNKLKASQARDLLSKMLVIDASKRISVDEALQHPYINVWYDPSEAEAPPPKIPDKQLDEREHTIEEWKELIYKEVMDLEERTKNGVIRGQPSPLAQVQQ
modifications: active (phosphorylated) form; biotinylated by amine crosslinking to NHS-LC-LC-biotin, 5 : 1 molar ratio of biotin to protein; left off: GST, end not stated, kept
notes: c-Jun N-terminal kinase
Kd (NOS3 (bovine); 400 nM trace eliminated from fit): 18 nM
kon (NOS3 (bovine); BLI, active GST-JNK1α1 ligand, NOS3 analyte, 25 °C, pH 7.4, global one-state fit): 4106 M⁻¹ s⁻¹
binding to NOS1 (NOS1): No evidence of JNK1α1 binding to NOS1 beyond nonspecific binding; also recorded: no binding could be detected
phosphorylation of NOS3 at S114 (NOS3 [1]): predominantly phosphorylated NOS3 at S114; also recorded: phosphorylates S114; also recorded: easily detected when compared to ERK2
NO production / NOS3 activity (NOS3 [2]): do not significantly change NO production; also recorded: did not alter in vitro NOS3 activity
conformation of NOS3 (fluorescence decay) (NOS3 [3]): no significant change in conformation; also recorded: did not differ significantly from that of unphosphorylated NOS3; also recorded: did not meaningfully change the confirmation of NOS3
